From patent US20090252729A1

Tests used:
[1] = target: human FcRIII-GST (CD16a, V158) (human) (UniProt P08637); test: Alphascreen assay, human FcγR CD16a
[2] = target: cynomolgus FcγR III (CD16a) (cynomolgus) (UniProt Q8SPW2); test: Alphascreen assay, cynomolgus FcγR CD16a
[3] = target: cynomolgus FcγR IIa (CD32a) (cynomolgus); test: Alphascreen assay, cynomolgus FcγR CD32a (R)

Sequence of human FcRIII-GST (CD16a, V158) (human) (P08637 17-208 F176V limits assumed): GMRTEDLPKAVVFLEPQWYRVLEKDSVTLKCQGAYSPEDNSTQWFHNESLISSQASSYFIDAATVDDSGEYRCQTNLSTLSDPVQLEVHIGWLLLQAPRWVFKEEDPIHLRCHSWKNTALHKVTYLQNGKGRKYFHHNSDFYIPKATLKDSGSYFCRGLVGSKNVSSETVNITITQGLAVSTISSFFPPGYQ
Sequence of cynomolgus FcγR III (CD16a) (cynomolgus) (Q8SPW2 17-208 limits assumed): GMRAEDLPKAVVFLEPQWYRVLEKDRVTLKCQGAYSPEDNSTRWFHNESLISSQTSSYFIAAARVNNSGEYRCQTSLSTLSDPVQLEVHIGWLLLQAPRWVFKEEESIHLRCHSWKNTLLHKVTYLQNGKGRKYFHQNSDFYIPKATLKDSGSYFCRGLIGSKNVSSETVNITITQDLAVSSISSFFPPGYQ

What does the source list for Agly 5c8 IgG1 (antibody)?
EC50 [1]: 1.84 µM; EC50 [2]: 2.31 µM; EC50 [3]: 1.17 µM
